Test results: PMC10499821 (Nature Communications, 2023)
Where no end group is shown, it is not given here. The star is where a group is joined. FITC = O=C1OC2(c3ccc(O)cc3Oc3cc(O)ccc32)c2ccc(NC(=S)*)cc21

B1: DYRK1B_(395–410) (peptide)
peptide: PGHSPADYLRFQDLVL
notes: also called DYRK1B peptide; DYRK1B_(394–409)

What was measured:
Nsp16 = Nsp16 (SARS-CoV-2, UniProt P0DTD1 6799-7096); experiment: fluorescence polarisation; details: both partners purified
Nsp9 = Nsp9 (SARS-CoV-2, UniProt P0DTD1); experiment: fluorescence polarisation; details: both partners purified

Binder	Kd (Nsp16) [µM]	binding result (Nsp9)	also measured
EDPLDSYLNFQALISP (also called FLJ43738 peptide) [FLJ43738_(76–91)]	62	–	–
{FITC}-AEGIDIGEMPSYDLVL [FITC-NKRF_(8–23)]	–	binds	–
MNIQEQGFPLDLGAS (also called Axin-1 peptide) [AXIN1_(1–15)]	–	binds	–
PAHPDGFALGRAPLA (also called LMTK3 peptide) [LMTK3_(22–36)]	–	binds	–
FQGAWLGCPEPWEPLL (peptide, UniProt Q99466 1605-1620, looked up, also called NOTCH4 peptide) [NOTCH4_(1605–1620)]	–	–	Kd (Nsp9): ~130 µM
B1	56	–	–
AEGIDIGEMPSYDLVL (also called NKRF peptide) [NKRF_(8–23)]	–	binds	–
NQDMSAWFNLFADLDP (also called ICA1L peptide) [ICA1L_(450–465)]	30	–	–
